In IntAct's records for PubMed 16303566:

B1: Gigaxonin (Homo sapiens), Q9H2C0 (parent)
chain: MAEGSAVSDPQHAARLLRALSSFREESRFCDAHLVLDGEEIPVQKNILAAASPYIRTKLNYNPPKDDGSTYKIELEGISVMVMREILDYIFSGQIRLNEDTIQDVVQAADLLLLTDLKTLCCEFLEGCIAAENCIGIRDFALHYCLHHVHYLATEYLETHFRDVSSTEEFLELSPQKLKEVISLEKLNVGNERYVFEAVIRWIAHDTEIRKVHMKDVMSALWVSGLDSSYLREQMLNEPLVREIVKECSNIPLSQPQQGEAMLANFKPRGYSECIVTVGGEERVSRKPTAAMRCMCPLYDPNRQLWIELAPLSMPRINHGVLSAEGFLFVFGGQDENKQTLSSGEKYDPDANTWTALPPMNEARHNFGIVEIDGMLYILGGEDGEKELISMECYDIYSKTWTKQPDLTMVRKIGCYAAMKKKIYAMGGGSYGKLFESVECYDPRTQQWTAICPLKERRFGAVACGVAMELYVFGGVRSREDAQGSEMVTCKSEFYHDEFKRWIYLNDQNLCIPASSSFVYGAVPIGASIYVIGDLDTGTNYDYVREFKRSTGTWHHTKPLLPSDLRRTGCAALRIANCKLFRLQLQQGLFRIRVHSP

Variants of: B1
Settings: with tbcb_human TBCB

Variant	effect of a mutation on the interaction
MAEGSAVSDPQHAARLLRALSSFREESRFCDAHLVLDGEEIPVQKNILAAASPYIRTKLNYNPPKDDGSTYKIELEGISVMVMREILDYIFSGQIRLNEDTIQDVVQAADLLLLTDLKTLCCEFLEGCIAAENCIGIRDFALHYCLHHVHYLATEYLETHFRDVSSTEEFLELSPQKLKEVISLEKLNVGNERYVFEAVIRWIAHDTEIRKVHMKDVMSALWVSGLDSSYLREQMLNEPLVREIVKECSNIPLSQPQQGEAMLANFKPRGYSECIVTVGGEERVSRKPTAAMRCMCPLYDPNRQLWIELAPLSMPRINHGVLSAEGFLFVFGGQDENKQTLSSGEKYDPDANTWTALPPMNEARHNFGIVEIDGMLYILGGEDGEKELISMECYDIYSKTWTKQPDLTMVRKIGCYAAMKKKIYAMGGGSYGKLFESVECYDPRTQQWTAICPLKERRFGAVACGVAMELYVFGGVRSREDAQGSEMVTCKSEFYHDEFKRWIYLNDQNLCIPASSSFVYGAVPIGASIYVIGDLDTGTNYDYVCEFKRSTGTWHHTKPLLPSDLRRTGCAALRIANCKLFRLQLQQGLFRIRVHSP [R545C]	disrupting interaction
